According to US6673770B1, “Peptides for the treatment, prophylaxis, diagnosis and monitoring of autoimmune diseases” (Upither B.V., priority 1998, dated 2004):

Target: MHC class II RT1.B^L (Lewis rat), isolated molecules (rat (Lewis))

mycobacterial hsp65 180-188 peptide …
IC50: 32 to 64 µM
